Experiments:
HLA-A2.1 [1] = biological target: T1, HLA-A2.1 (human); test: HLA-A2 binding assay on T2 cells, flow cytometry
T1 construct: also called HLA-A*0201; HLA-A0201

HLA-A2.1 [2] = biological target: T1, HLA-A2.1; test: T2 cell HLA-A2.1 stabilisation assay, flow cytometry
HLA-A2.1 [3] = biological target: T1, HLA-A2.1; test: T2 cell HLA-A*0201 stabilisation assay, flow cytometry

Binder	binding result (HLA-A2.1 [1])	other results
FLPWHRLFL (Synthetic 9-mer of tyrosinase; also called Tyr 207-215) [tyrosinase207-215]	binds	
KASEKIFYV (Synthetic 9-mer of SSX-2) [SSX-2 41-49]		binding result (HLA-A2.1 [2]): binds
LPWHRLFLL (Synthetic 9-mer of tyrosinase; also called Tyr 208-216) [tyrosinase208-216]	binds	
MMNDQLMFL (9-mer of prostate specific membrane antigen) [PSMA663-671]		binding result (HLA-A2.1 [3]): binds

Reference: patent EP1752160A2 (Mannkind Corporation, dated 2007)
